In patent US20250066819:

Key:
Test in all cases: cell_activity
[1] = tested on: Type I-F3a CAST (TniQ-Cascade + TnsABC) (Vibrio cholerae HE-45)
[2] = tested on: Type I-F3a CAST with Cas6 R125A Cas6 R125A (Vibrio cholerae HE-45); settings: below detection
[3] = tested on: Type I-F3a CAST with Cas6 R117A Cas6 R117A (Vibrio cholerae HE-45); settings: below detection
[4] = tested on: Type I-F3a CAST with Cas6 R121A Cas6 R121A (Vibrio cholerae HE-45); settings: below detection

How did the relative transposition efficiency (fold of native) ([1]; printed as ~10-3-fold less efficient than native crRNA) turn out when “lacZ crRNA, canonical type I-E repeat ; lacZ target” was run?
Its relative transposition efficiency (fold of native) is 0.001.

What does the source list for “lacZ crRNA, native I-F3a CAST repeat ; lacZ target”?
activity [2]: < 1e-07 cfu; activity ([1]; transposition efficiency of viable recipients (+/- 0.2), E. coli, conjugation assay, PAM not stated): 1.4%; activity [3]: < 1e-07 cfu; activity [4]: < 1e-07 cfu
